Experimental findings from article PMC11412654, “Immunization of cows with HIV envelope trimers generates broadly neutralizing antibodies to the V2-apex from the ultralong CDRH3 repertoire” (PLOS Pathogens, 2024) are described below.

The target of the test is T1, BG505 gp120 (HIV-1 isolate BG505).
T1 construct: also called monomeric gp120; the monomer
Put plainly: ELISA; plates coated with 250 ng of BG505 gp120; monoclonal antibodies from 20 μg/mL in seven 6-fold dilutions; detected with alkaline phosphatase conjugated anti-human F(ab')2; room temperature. Particulars: both partners purified. On the technique in general: In an ELISA, binding on a coated surface is turned into a signal by an enzyme label.

B1: Bess2 (antibody)
VH: KVQLRESGPSLVKPSQTLSLTCTVSGFSLSDKAVGWVRQAPGKALEWLGSIDTGGSTGYNPGLKSRLSITKDNSKSQVSLSVTSVTTEDSTTYYCTTVHQTTKTTKKCPDGYNYDDGCASDLGCGEADCCCYGGYDEYGGYLYSCCSYSYTYEWYVDAWGQGLLVTVSS
VL: QAVLNQPSSVSGSLGQRVSITCSGSSSNVGNGYVSWYQLIPGSAPRTLIYGDTSRASGVPDRFSGSRSGNTATLTISSLQAEDEADYFCASAEDSSSNAVFGSGTTLTVL
notes: also called Bess2 mAb; source: Expi293 or 293F cells, transfected, purified (Protein A Sepharose or Praesto AP)
Consider B1, for which the binding result is listed as “no binding (tested: 20 μg/mL (highest concentration))”.

B2: Bess6 (antibody)
VH: KVQLRESGPSLVKPSQTLSLICTVSGFSLSDKAVGWVRQAPGKALEWLGSIDTAGTTDHHPGLKSRLSITKDNSKNQVSLSLSSVTTEDSATYYCTTVHQPTSKQYSCPDGASVRTGGGWRWLCRGHDCCCVVEYIAYEQTPCTLTRTYEWHIDAWGQGLLVTVSS
VL: B1 VL
notes: also called Bess6 mAb; source: Expi293 or 293F cells, transfected, purified (Protein A Sepharose or Praesto AP)
As to B2, the binding result is recorded as “no binding (tested: 20 μg/mL (highest concentration))”.
